# Measurements published in patent US20230295336A1 (INHIBRX, published 2023).
# T1: B7H3 (CD276) (human, UniProt Q5ZPR3 29-534)
# T1 construct: whole, on cells
# T1 sequence (looked up): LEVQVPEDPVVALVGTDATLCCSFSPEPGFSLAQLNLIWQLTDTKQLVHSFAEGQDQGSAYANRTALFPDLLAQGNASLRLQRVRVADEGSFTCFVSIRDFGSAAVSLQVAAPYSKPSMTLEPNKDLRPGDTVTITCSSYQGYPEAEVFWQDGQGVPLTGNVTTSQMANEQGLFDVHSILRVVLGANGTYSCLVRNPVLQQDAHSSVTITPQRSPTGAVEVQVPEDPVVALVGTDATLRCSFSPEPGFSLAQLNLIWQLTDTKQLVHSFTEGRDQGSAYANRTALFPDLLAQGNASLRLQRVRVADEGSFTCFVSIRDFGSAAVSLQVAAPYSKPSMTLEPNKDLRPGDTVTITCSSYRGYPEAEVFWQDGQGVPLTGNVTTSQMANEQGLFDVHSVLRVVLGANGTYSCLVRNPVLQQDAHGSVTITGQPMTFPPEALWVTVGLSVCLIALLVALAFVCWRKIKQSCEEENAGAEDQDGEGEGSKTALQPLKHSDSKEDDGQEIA
# Legend:
# B7H3 (CD276) [1] = target: T1, B7H3 (CD276); assay: flow cytometry on A375 cells
# Experimental: (§1) Binding of exemplary multispecific constructs containing an antigen-binding domain directed against B7H3 were assessed for binding to B7H3 positive A375 tumor cells or primary T-cells. The constructs were generated containing antigen-binding domain(s) that were either sdAbs or a FABs, and that were positioned either only N-terminal to the Fc or both N-terminal to the Fc and C-terminal to the anti-CD3 binding domain (see FIGS. 3A and 3C and Table E1.1). Among the various formats of constructs tested included: sdAb-Fc-dsFV-sdAb (cx3072, cx5952) sdAb-Fc-FV (cx6079), sdAb-Fc-dsFV (cs6080, cx6081), MAB-FV (cx5067) and MAB-dsFV (cx6083, cx6084), where the FV represents the anti-CD3 binding domain composed of VH and VL domain pairs and “ds” notes disulfide stabilized via an engineered interdomain disulfide bond.
# Binding was assessed as described above via flow cytometry using a fluorophore-conjugated anti-human Fc secondary antibody. cx3072 bound to A375 cells with high affinity (FIG. 6A) but not to isolated T-cells (FIG. 6B). […]
# [2] = target: T2, CD3 on the surface of primary T cells (human, UniProt P07766 23-207); assay: flow cytometry on isolated primary human T cells
# T2 construct: whole, on cells; CD3 is a multimeric complex (ε, γ, δ, ζ chains) with the TCR; In the reporter assays CD3 stood on Jurkat cells; also called CD3ε
# T2 sequence (P07766 23-207): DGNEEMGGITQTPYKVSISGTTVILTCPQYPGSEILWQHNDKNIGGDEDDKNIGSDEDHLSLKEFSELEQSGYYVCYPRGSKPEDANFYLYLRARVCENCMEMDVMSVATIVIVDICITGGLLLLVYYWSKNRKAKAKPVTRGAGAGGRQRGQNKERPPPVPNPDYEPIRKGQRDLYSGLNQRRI
# Experimental: as §1
# (§2) Binding was assessed as described above via flow cytometry using a fluorophore-conjugated anti-human Fc secondary antibody. cx3072 bound to A375 cells with high affinity (FIG. 6A) but not to isolated T-cells (FIG. 6B). […] The B7H3-targeting sdAb containing constructs (cx5952, cx6079, cx6080, and cx6081) bound to B7H3 positive cells with similar affinities (depicted in FIG. 6E), with cx5952 displaying higher maximal binding. cx6079, cx6080 and cx6081 contain two identical B7H3-targeting sdAbs, whereas cx5952, and cx3072 contain two distinct B7H3-targeting sdAb that bind different epitopes. The MAB-FV, cx5067, contains two identical B7H3-targeting FAB domains.
# B7H3 (CD276) [3] = target: T1, B7H3 (CD276); assay: flow cytometry on A375 cells, anti-human Fc secondary
# Experimental: as §1, §2
Binder,binding result (B7H3 (CD276) [1]),binding result [2],binding result (B7H3 (CD276) [3])
"cx6080 (bispecific antibody, Heterodimer of chain 1 and chain 2; anti-CD3 Fv disulfide-stabilized (VH G44C / VL G100C); two identical B7H3 sdAbs, both N-terminal to the Fc; also called cs6080; B7H3-targeting constrained CD3 engaging construct) chain 1: EVQLVESGGGEVQPGGSLRLSCAASGFSFSSNVMMWVRQAPGKGLEWVSTIYSSGTGTFYAESVKGRFTISRDNAKNTLYLQMSSLRPEDTAVYYCATSGPVRGWGPRSQGTLVTVKPPGGGGDKTHTCPPCPAPPVAGPSVFLFPPKPKDTLMISRTPEVTCVVVDVKHEDPEVKFNWYVDGVEVHNAKTKPREEEYNSTYRVVSVLTVLHQDWLNGKEYKCKVSNKALPAPIEKTISKAKGQPREPQVYTLPPSREEMTKNQVSLTCDVSGFYPSDIAVEWESDGQPENNYKTTPPVLDSDGSFFLYSKLTVDKSRWEQGDVFSCSVMHEALHNHYTQKSLSLSPGKGGGGSGGGGSGGGGSEVQLVESGGGLVQPGGSLRLSCAASGFTFSTYAMNWVRQAPGKCLEWVGRIRSKYNNYATYYADSVKGRFTISRDDSKNTLYLQMNSLRAEDTAVYYCVRHGNFGDSYVSWFAYWGQGTLVTVSS chain 2: EVQLVESGGGEVQPGGSLRLSCAASGFSFSSNVMMWVRQAPGKGLEWVSTIYSSGTGTFYAESVKGRFTISRDNAKNTLYLQMSSLRPEDTAVYYCATSGPVRGWGPRSQGTLVTVKPPGGGGDKTHTCPPCPAPPVAGPSVFLFPPKPKDTLMISRTPEVTCVVVDVKHEDPEVKFNWYVDGVEVHNAKTKPREEQYNSTYRVVSVLTVLHQDWLNGKEYKCKVSNKALPAPIEKTISKAKGQPREPQVYTLPPSREQMTKNQVKLTCLVKGFYPSDIAVEWESNGQPENNYKTTPPVLDSDGSFFLYSKLTVDKSRWQQGNVFSCSVMHEALHNHYTQKSLSLSPGKGGGGSGGGGSGGGGSQAVVTQEPSLTVSPGGTVTLTCGSSTGAVTTSNYANWVQQKPGKSPRGLIGGTNKRAPGVPARFSGSLLGGKAALTISGAQPEDEADYYCALWYSNHWVFGCGTKLTVL",binds,no binding,–
"cx6084 (bispecific antibody, human IgG1, kappa, Three polypeptides; B7H3 Fab on both Fc chains; anti-CD3 Fv disulfide-stabilized (VH G44C / VL G100C); also called MAB-dsFV; B7H3-targeted constrained CD3 engaging construct (Fab format)) chain 1: EVQLVESGGGLVQPGGSLRLSCAASGFTFSSFGMHWVRQAPGKGLEWVAYISSDSSAIYYADTVKGRFTISRDNAKNSLYLQMNSLRDEDTAVYYCGRGRENIYYGSRLDYWGQGTTVTVSSASTKGPSVFPLAPSSKSTSGGTAALGCLVKDYFPEPVTVSWNSGALTSGVHTFPAVLQSSGLYSLSSVVTVPSSSLGTQTYICNVNHKPSNTKVDKKVEPKSCDKTHTCPPCPAPPVAGPSVFLFPPKPKDTLMISRTPEVTCVVVDVKHEDPEVKFNWYVDGVEVHNAKTKPREEEYNSTYRVVSVLTVLHQDWLNGKEYKCKVSNKALPAPIEKTISKAKGQPREPQVYTLPPSREEMTKNQVSLTCDVSGFYPSDIAVEWESDGQPENNYKTTPPVLDSDGSFFLYSKLTVDKSRWEQGDVFSCSVMHEALHNHYTQKSLSLSPGKGGGGSGGGGSGGGGSEVQLVESGGGLVQPGGSLRLSCAASGFTFNTYAMNWVRQAPGKCLEWVARIRSKYNNYATYYADSVKGRFTISRDDAKNTLYLQMSSLRAEDTAVYYCVRHGNFGNSYVSWFAYWGQGTLVTVKP chain 2: EVQLVESGGGLVQPGGSLRLSCAASGFTFSSFGMHWVRQAPGKGLEWVAYISSDSSAIYYADTVKGRFTISRDNAKNSLYLQMNSLRDEDTAVYYCGRGRENIYYGSRLDYWGQGTTVTVSSASTKGPSVFPLAPSSKSTSGGTAALGCLVKDYFPEPVTVSWNSGALTSGVHTFPAVLQSSGLYSLSSVVTVPSSSLGTQTYICNVNHKPSNTKVDKKVEPKSCDKTHTCPPCPAPPVAGPSVFLFPPKPKDTLMISRTPEVTCVVVDVKHEDPEVKFNWYVDGVEVHNAKTKPREEQYNSTYRVVSVLTVLHQDWLNGKEYKCKVSNKALPAPIEKTISKAKGQPREPQVYTLPPSREQMTKNQVKLTCLVKGFYPSDIAVEWESNGQPENNYKTTPPVLDSDGSFFLYSKLTVDKSRWQQGNVFSCSVMHEALHNHYTQKSLSLSPGKGGGGSGGGGSGGGGSQAVVTQEPSLTVSPGGTVTLTCGSSTGAVTTSNYANWVQQKPGQAFRGLIGGTNKRAPGVPARFSGSLLGGKAALTISGAQPEDEADYYCALWYSNHWVFGCGTKLEIK light: DIQLTQSPSFLSASVGDRVTITCKASQNVDTNVAWYQQKPGKAPKALIYSASYRYSGVPSRFSGSGSGTDFTLTISSLQPEDFATYYCQQYNNYPFTFGQGTKLEIKRTVAAPSVFIFPPSDEQLKSGTASVVCLLNNFYPREAKVQWKVDNALQSGNSQESVTEQDSKDSTYSLSSTLTLSKADYEKHKVYACEVTHQGLSSPVTKSFNRGEC",–,no binding,binds
